Experiment [1] can be described thus: Brightness and BRET efficiency to a bound HaloTag TMR-fluorescent ligand. To be noted: versus HaloTag-LgBiT configuration, complemented with VS-HiBiT. It is filed as biochemical. The source says:
The efficiency of bioluminescence-triggered catalyst activation depends on the emission intensity of the luciferase energy donor, spectral overlap between luciferase emission and catalyst excitation, proximity between the luciferase and catalyst, and capacity of the complex to adopt a conformation favorable for efficient energy transfer between the two. First, the influence of the NanoLuc-HaloTag fusion orientation on the efficiency of bioluminescence resonance energy transfer (BRET) to a bound HaloTag TMR-fluorescent ligand was tested. To this end, fusions either untethered or tethered to a HaloTag TMR-fluorescent ligand were diluted in TBS+0.01% BSA to a final concentration of 6.6 nM and then treated with 10× fluorofurimazine at a final concentration of 20 M. Following 3 minutes incubation, raw luminescence (Total RLU) or filtered luminesces for donor (e.g., 450 nm/8 nm BP) and acceptor (600 nm LP) emissions, respectively were measured on a GloMax® Discover plate reader (Promega). BRET ratios were further calculated for each sample by dividing the acceptor emission value by its donor emission value. While both orientations delivered equivalent brightness one of them NanoLuc-HaloTag provided greater BRET efficiency (FIG. 16A), which is likely due to greater proximity between NanoLuc's substrate binding site and the bound fluorescent ligand. […]
In general terms: In BRET a luciferase serves as donor, and the signal depends on an acceptor being close.

The subject of experiment [2] is VS-HiBiT peptide. Put plainly: Complementation affinity with VS-HiBiT peptide. It is filed as binding. To be noted: versus HaloTag-LgBiT configuration. From the text: Such configuration offers a modality agnostic approach for proximity between the photocatalytic complex and protein of interest genetically fused to HiBiT as well as greater spatial control over photocatalytic reactivity. First, the properties of the bioluminescent complementation reporter comprising VS-HiBiT peptide and either HaloTag-LgBiT or LgBiT-HaloTag were compared (FIG. 23 A-C). To determine complementation affinity, equal volumes of VS-HiBiT peptide serially diluted in TBS+0.01% BSA to final concentrations of 200-0 nM and HaloTag-LgBiT or LgBiT-HaloTag diluted in TBS+0.01% BSA to a final concentration of 0.2 nM were combined in wells of a white 96-well plate and mixed for 30 minutes. Following a 3-minutes treatment with either 10× furimazine or fluorofurimazine at a final concentration 20 M, bioluminescence was measured on a GloMax® Discover plate reader (Promega), and binding affinity (Kd) was derived from a saturation binding curve of luminescence against VS-HiBiT concentration (FIG. 23A). […] Following a 3-minutes treatment with either 10× furimazine or fluorofurimazine at a final concentration 20 M, raw luminescence (Total RLU; FIG. 23B) or filtered luminesces of donor (e.g., 450 nm/8 nm BP) and acceptor (600 nm LP) emissions were measured on a GloMax® Discover plate reader (Promega). […]
(The HiBiT peptide binds its large partner to form an active luciferase.)

B1: VS-HiBiT/LgBiT-HaloTag: bioluminescent complementation reporter comprising VS-HiBiT peptide and LgBiT-HaloTag (protein)
chain: MVFTLEDFVGDWEQTAAYNLDQVLEQGGVSSLLQNLAVSVTPIQRIVRSGENALKIDIHVIIPYEGLSADQMAQIEEVFKVVYPVDDHHFKVILPYGTLVIDGVTPNMLNYFGRPYEGIAVFDGKKITVTGTLWNGNKIIDERLITPDGSMLFRVTINSMAEIGTGFPFDPHYVEVLGERMHYVDVGPRDGTPVLFLHGNPTSSYVWRNIIPHVAPTHRCIAPDLIGMGKSDKPDLGYFFDDHVRFMDAFIEALGLEEVVLVIHDWGSALGFHWAKRNPERVKGIAFMEFIRPIPTWDEWPEFARETFQAFRTTDVGRKLIIDQNVFIEGTLPMGVVRPLTEVEMDHYREPFLNPVDREPLWRFPNELPIAGEPANIVALVEEYMDWLHQSPVPKLLFWGTPGVLIPPAEAARLAKSLPNCKAVDIGPGLNLLQEDNPDLIGSEIARWLSTLEISG
modifications: left off: large carriers
For B1, the “BRET efficiency, fold greater” value in experiment [1] is 1.5-2 fold. Besides, the “complementation affinity, fold higher” value in experiment [2] was found to be 3 fold.
